Experimental data reported in US7304127.

Target: HIV-1LAI envelope gp120 labeled with radioactive iodine (HIV-1 LAI), P03377
Assay: 125I-gp120, peptide array

Binder | counts minus background (counts per 20 min)
EKVVYVGVWIPALLLTIP (modifications not checked) [CXCR4 153-170] | 147
FISLDRYLAIVHATNSQR (modifications not checked) [CXCR4 129-146] | 91
TDKYRLHLSVADLLFVIT (modifications not checked) [CXCR4 73-90] | 92
VSEADDRYICDRFYPNDL (modifications not checked) [CXCR4 177-194] | 157
LILAFISLDRYLAIVHAT (modifications not checked) [CXCR4 125-142] | 107
ATNSQRPRKLLAEKVVYV (modifications not checked) [CXCR4 141-158] | 78
LLLTIPDFIFANVSEADD (modifications not checked) [CXCR4 165-182] | 1010
VVFQFQHIMVGLILPGIV (modifications not checked) [CXCR4 197-214] | 589
LRSMTDKYRLHLSVADLL (modifications not checked) [CXCR4 69-86] | 160
ICDRFYPNDLWVVVFQFQ (modifications not checked) [CXCR4 185-202] | 306
GNFLCKAVHVIYTVNLYS (modifications not checked) [CXCR4 105-122] | 231
KLLAEKVVYVGVWIPALL (modifications not checked) [CXCR4 149-166] | 89
DLWVVVFQFQHIMVGLIL (modifications not checked) [CXCR4 193-210] | 422
DDRYICDRFYPNDLWVVV (modifications not checked) [CXCR4 181-198] | 125
QRPRKLLAEKVVYVGVWI (modifications not checked) [CXCR4 145-162] | 127
SCYCIIISKLSHSKGHQK (modifications not checked) [CXCR4 217-234] | 259
YSLVFIFGFVGNMLVILI (modifications not checked) [CCR5 37-54] | 347
TVNLYSSVLILAFISLDR (modifications not checked) [CXCR4 117-134] | 242
FQHIMVGLILPGIVILSC (modifications not checked) [CXCR4 201-218] | 170
FYPNDLWVVVFQFQHIMV (modifications not checked) [CXCR4 189-206] | 416
CKAVHVIYTVNLYSSVLI (modifications not checked) [CXCR4 109-126] | 243
FWAVDAVANWYFGNFLCK (modifications not checked) [CXCR4 93-110] | 66
ITLPFWAVDAVANWYFGN (modifications not checked) [CXCR4 89-106] | 130
SVADLLFVITLPFWAVDA (modifications not checked) [CXCR4 81-98] | 253

Binder | counts minus background (counts per 20 min)
YSSVLILAFISLDRYLAI (modifications not checked) [CXCR4 121-138] | 157
MVGLILPGIVILSCYCII (modifications not checked) [CXCR4 205-222] | 167
LLFVITLPFWAVDAVANW (modifications not checked) [CXCR4 85-102] | 63
YVGVWIPALLLTIPDFIF (modifications not checked) [CXCR4 157-174] | 124
HVIYTVNLYSSVLILAFI (modifications not checked) [CXCR4 113-130] | 118
AIVHATNSQRPRKLLAEK (modifications not checked) [CXCR4 137-154] | 73
FIFGFVGNMLVILILINC (modifications not checked) [CCR5 41-58] | 343
WIPALLLTIPDFIFANVS (modifications not checked) [CXCR4 161-178] | 182
GLVILVMGYQKKLRSMTD (modifications not checked) [CXCR4 57-74] | 157
RLHLSVADLLFVITLPFW (modifications not checked) [CXCR4 77-94] | 136
MDYQVSSPIYDINYYTSE (modifications not checked) [CCR5 1-18] | 735
IPDFIFANVSEADDRYIC (modifications not checked) [CXCR4 169-186] | 438
YQKKLRSMTDKYRLHLSV (modifications not checked) [CXCR4 65-82] | 99
DAVANWYFGNFLCKAVHV (modifications not checked) [CXCR4 97-114] | 112
NWYFGNFLCKAVHVIYTV (modifications not checked) [CXCR4 101-118] | 96
LVMGYQKKLRSMTDKYRL (modifications not checked) [CXCR4 61-78] | 105
FVGNMLVILILINCKRLK (modifications not checked) [CCR5 45-62] | 62
ILPGIVILSCYCIIISKL (modifications not checked) [CXCR4 209-226] | 192
MLVILILINCKRLKSMTD (modifications not checked) [CCR5 49-66] | 84
IVILSCYCIIISKLSHSK (modifications not checked) [CXCR4 213-230] | 277
LILINCKRLKSMTDIYLL (modifications not checked) [CCR5 53-70] | 2
IFANVSEADDRYICDRFY (modifications not checked) [CXCR4 173-190] | 267
DRYLAIVHATNSQRPRKL (modifications not checked) [CXCR4 133-150] | 168
